Source: US20120141373A1 (University of California, published 2012)
Residue numbers refer to the chain shown, from its start.

B1: E2 Fab (Fab, V domains shown)
VH: QVQLVQSGGGLVKPGGSLRLSCAASGFTFSSYAMSWVRQAPGKGLEWVSAISGSGGSTYYADSVKGRFTISRDNSKNTLYLQMSSLRAEDTAVYYCARPYLTYPQRRGPQNVSPFDNWGQGTMVTVSS
VL: DIQMTQSPSSLSASVGDRVTITCRASQGISSYLAWYQQKPGKAPKLLIYAASSLQSGVPSRFSGSGSGTDFTLTISSLQPEDFAVYYCQQHGNLPYTFGDGTKVEIKR
notes: also called anti-MT-SP1 Fab antibody E2
B2: A11 Fab (Fab, V domains shown)
VH: EVQLVQSGGGLVKPGGSLRLSCAASGFTFSSYAMSWVRQAPGKGLEWVSAISGSGGSTYYADSVKGRFTISRDNSKNTLYLQMSSLRAEDTAVYYCVKDLGIAARRFVSGAFDIWGQGTMVTVSS
VL: EIVLTQSPGTLSLSPGERATLSCRASQSVSSSYLAWYQQKPGQAPRLLIYGASTRATGIPARFSGSGSGTDFTLTINSLEPEDFAVYYCQQRSNWPPGYTFGQGTKVEIKR
notes: Human Fab from a naive phage library, VH3 heavy chain and Vkappa3 light chain; The Fab was made in E. coli for biochemical assays and in T. reesei for crystallisation; also called Fab A11; recombinant A11 Fab
B3: A11 H R100bK (Fab, V domains shown)
VH: B2 VH with R106K
VL: B2 VL
notes: also called ArgH100bLys; A11 mutant ArgH100bLys
B4: A11 H R100bA (Fab, V domains shown)
VH: B2 VH with R106A
VL: B2 VL
notes: also called ArgH100bAla; A11 mutant ArgH100bAla
B5: A11 H R100aA (Fab, V domains shown)
VH: B2 VH with R105A
VL: B2 VL
notes: also called ArgH100aAla; A11 mutant ArgH100aAla

Legend:
[1] = biological target: T1, human MT-SP1 protease domain (human, UniProt Q9Y5Y6 615-855); experiment: steady state kinetics, probably pM (the same paragraph prints 720 µM for what Table 3 gives as 0.72 nM)
T1 construct: domain: protease domain; also called hMT-SP1; matriptase
T1 sequence (looked up): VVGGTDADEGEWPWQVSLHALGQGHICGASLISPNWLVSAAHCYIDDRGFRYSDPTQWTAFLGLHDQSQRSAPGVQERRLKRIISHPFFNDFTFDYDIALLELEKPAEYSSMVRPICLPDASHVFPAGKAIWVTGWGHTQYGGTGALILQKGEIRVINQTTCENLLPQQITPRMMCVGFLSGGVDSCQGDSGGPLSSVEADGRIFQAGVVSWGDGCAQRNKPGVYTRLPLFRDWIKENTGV
Experimental: (§1) Briefly, all reactions were carried out in 50 mM Tris, pH 8.8, 50 mM NaCl, 0.01% Tween-20 in 96-well, medium binding, flat-bottomed plate (Corning), and cleavage of substrate (Spectrazyme-tPA (hexahydrotyrosyl-Gly-Arg-pNA), American Diagnostica, Greenwich, Conn.) was monitored in a UVmax Microplate Reader (Molecular Devices Corporation, Palo Alto, Calif.). […] Reactions to determine the IC₅₀'s were carried out by incubating 0.2 nM enzyme with inhibitor for >5 hours to assure steady-state behavior of the system. […] Inhibitor activity was also measured using the chromogenic substrate Spectrafluor tPA (American diagnostica, Inc.). […] Kaleidagraph 3.6 was used to fit all graphs and equations (Synergy Software, Reading, Pa.).

[2] = biological target: T2, epithin (mouse, UniProt P56677 615-855, limits assumed); experiment: steady state kinetics, inhibition of epithin
T2 construct: also called mouse homologue of MT-SP1; A11 (Epithin)
T2 sequence (looked up): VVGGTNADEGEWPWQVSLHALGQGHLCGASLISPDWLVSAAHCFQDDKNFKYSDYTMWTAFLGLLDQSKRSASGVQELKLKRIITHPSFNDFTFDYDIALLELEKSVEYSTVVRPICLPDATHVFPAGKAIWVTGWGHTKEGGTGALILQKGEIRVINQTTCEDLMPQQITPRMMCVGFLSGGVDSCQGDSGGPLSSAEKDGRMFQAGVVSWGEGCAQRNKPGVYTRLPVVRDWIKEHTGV

[3] = biological target: T1, human MT-SP1 protease domain; experiment: steady state kinetics
Experimental: as §1

[4] = biological target: T1, human MT-SP1 protease domain; experiment: steady state kinetics, tight-binding inhibition of Spectrazyme-tPA cleavage
Experimental: as §1

Binder | Ki [1] [nM] | Ki [2] [nM] | fold change of KI over wild-type A11 [3] [fold] | Ki [4] [nM]
B1 | 12000 | – | – | –
B2 | – | 87 | – | –
B3 | – | – | 250 | 180
B4 | – | – | 250 | 180
B5 | – | – | ~2 | 1.5
